In the DeepSol protein solubility set:

Experiment: soluble on expression in E. coli; label from the status in PepcDB or PDB records

Question: For “MINMTRKLYYEDAYLKEAKGRVLEIRDNAILLDQTIFYPTGGGQPHDRGTINGVEVLDVYKDEEGNVWHVVKEPEKFKVGDEVELKIDWDYRYKLMRIHTGLHLLEHVLNEVLGEGNWQLVGSGMSVEKGRYDIAYPENLNKYKEQIISLFNKYVDEGGEVKIWWEGDRRYTQIRDFEVIPCGGTHVKDIKEIGHIKKLKRSSIGRGKQRLEMWLE”, which “soluble on expression in E. coli” value is on record?
Answer: soluble

Question: For “MDAVRQSFQQLQNELRRDWCGIEAGGLASDYDILVVPSLSLDAHELQKISGVLFYEERLLFSLIRLRDPRTRVIYVTSEPLPPLVIDYYLQLLPGIPFSHARDRLLLLSTCDSSLKPLTQKILERPRLLERIRRALRPGSSFMTCFNSSPLERELSVALRVPLFAADPDLLEWGTKAGSRSLFAECGLPHPAGSPLMDSVEDLAAAAAELWQDQPQAQRFVIKLNQGFSGEGNALLDLRPIAQQSPDRVGLTAASQAIAQQFPVMRFQAAHETWQNFQGRITDLGAIAELFIEGEVKRSPSVQGCIHPSGQVEILSTHDQILGGPDGQIYLGCRFPADPAYRLQLQKWGEQIGEALAQRGALERFGVDFVAVNQGGDHWELQAIEINLRKGGTTHPFMTLKYLTNGYYDPQSGQFCSELGQPKYYVATDNLQSPRYRGVLPQDLMDIIAANQLHFDSSTKTGTVFHLMGCLSQYGKLGLTSIGNSPEQAQALYDEVVSVLDRETDPALEHHHHHH”, which “soluble on expression in E. coli” value is on record?
Answer: soluble

Question: For “MGSDKIHHHHHHMSTDFKKRNVFFSPPDMTETETRLVVEAIMSGWITTGPKTKEFEKKISAYVHTDKTVCLNSATAAMELALRLIGVGPEDEVIVPAYTYTASASVTQHVGCHLVMVDSNEENQQMDLQKLAEAITERTKVIVPVDLGGVVCEYDKILEILEQKKGLFRPTNELQKKIGRVIISSDCAHAFGSEWKGKMAGEIGDFSSFSFHAVKNLTTAEGGALTWHLPFGNEPIIMDIDTTIPVFEGETWNEFLYRKCQLFSLHGQNKDALAKTKLGSWEYDVIGPWYKCNMTDIMASLGLAQMERYDTMLQKRQKYVERFNEAFKELNVAVLDHKGAEHCSSHHLYIIRLLGKTREQVNDVITKMAERGIATNVHYKPLPMMTAYKTLGFDIKNFPNAYKMFENTMTLPLNTKMTEEDVEYVIENFVDIVKSL”, which “soluble on expression in E. coli” value is on record?
Answer: not soluble

Question: With “MNEADYLRLLTRQAEQANDFLSNARKWDRERWVCQRFLEALNVPYRQEDFAAPGEQPPDVLFKGAGFEVFFVLDEGRRLNEEWREELTRRRQAVSLRQLIRREERPQRIAAAELQARLAPTLRKKAHNYSERGIDHGELDLLAFVNLKRAVPDFNTPFPPPTEYLRQGWRSLSMVGPTFARVLFAHSGAPEFLRANLGRSILFDAGVGL” as the sequence, how does the “soluble on expression in E. coli” value read?
Answer: soluble

Question: For “MGSDKIHHHHHHMKRKIIQQLKLWKDNPARKPLILLGARQVGKTWVMKHFGQTEFENVAYINCDVEPLAKELFAADYSIPRILLTLQAITGTKIEAGKTLIVFDELQEVERGLHSLKYFQENAPEYHVMAAGSLLGITLGKGQSFPVGKVNVMHLYPMDFEEFLMAAGETDLCDLLHQPDWEILKILSLKYVDLLRQYYYVGGMPEVVDCFFQHQNLQEVRDKQTEILDAYRRDISKHTTATESIRIGQVLQSLPSQLAKENKKFIYNVLKKGARATEYELAIQWLMDAGLVHKVSRIKELQMPVKFYEDLGAFKLFLLDCGLLGCMTEAPASQMLVGDNVFKEFKGAFTEQFVLQQLVAQGFSPYYWSSDKTPAEIDFVVQTEHRVIPVEVKAEENVRARSMSEYIKNHPDYQLKGLRISMMGYQDQEWMENIPLFAITKFFG”, which “soluble on expression in E. coli” value is on record?
Answer: not soluble

Question: Which “soluble on expression in E. coli” value does the source give for “QVGLVRSKNVMIISPKYVAIQERLLRELDKGVTLVPIEGGYRNAKGMLLMTVIREKDFPRLKEAILEIDEEAFLISMSASEVYGKGFSLKKVADSYGVEATNANNLQ” here?
Answer: not soluble

Question: For “MILNIRKMGNSQGVILPKSLLGQIGAVDSLAVTVEKGNIILSCPTVRRGWAEAAAMLVETEQEHFFSEIENEADKEWIW”, which “soluble on expression in E. coli” value is on record?
Answer: not soluble

Question: For “MAGGARDDLAEKMAGEVALSDDPGATLRKWRTDFDVAQTELADELDVSPSVVSDYESGRRDNPGIGVVRRLVVALLDIDENRGGDHIRQHARVLSAGFDSDVVHDLREYSANVGVERVYDAIDAEELFRGSQDTVAGHTVINSIAAITRLSSDEFYQLYGQSTNRALVFTNVTRGESPLVALRVVSPTPNAVILHGLEDEAVWEHAQDLARIDDFSLAITDIELEDLLGGLRELP”, which “soluble on expression in E. coli” value is on record?
Answer: not soluble

Question: Which “soluble on expression in E. coli” value does the source give for “MSLKALGLSKSTYYHWKHYQTSRHDKQDTILKSQIFEIWKNNYKAYGYPRITIAMRRLGVVIGPNRVYRLMQELGIRSLMGRRFKKPGTHVDYSQRPNLIKNHPIGTIWRADITYLELRPGTWVYLSTIFDQASKQIIAFNIGKEMASKLIIKTLLQALSRASKPTFLHSDMGSQYTSIAYEGLLKRHLIRHSYSKQGYPYDNGPLEAFHSLLKREFIFQTRFTSFEDLVLRVENYINWYNTERIRINEGHHHHHH” here?
Answer: not soluble

Question: With “MSLGIKMRSVVVKEPGQLNIESRPVPVPGAHEVRVKIAFAGICGSDVHIYHGHNPFAKYPRVIGHEFYGIIDAVGEQVSPARIGERVAVDPVVSCGHCYPCSVGRPNVCTQLQVIGVHRDGGFSDYACVPAKNAWRIPEAISDRQATMVEPFTIAANITAQLQPTAQDIALVYGAGPMGLTIIQALKGVYGVKQVIVVDRIAERLQMARENGADLTLDNTDQPLAEQLAQRQLAPTLVIDAACHPAILQEAILLASPAARIGILGFSGEASTLTQQSITSKEISIFSSRLNSGRFPLVIDWMEKGLIRPEALITHCMPLEQVKEAMEIFANDRKTCCKVLLQLGEGHHHHHH” as the sequence, how does the “soluble on expression in E. coli” value read?
Answer: soluble

Question: With “MISIVIPLYNQVAYTQLCVQSLRRAGLNGVDVLLIDNGSTDGTAEYLKSCSDLRVIRNRENLGCAGAWNQGVRETTSEWVMILNNDVVVSPGWLDGLLEAAGKEGLDVVSPAIREGEYNYDIEGYSQEFVGRMGDVVRRGVADGICFMVRRRVFEVVGLFDENFRIGQFEDADFFRRARNAGFRLGTTGRSFIHHFGSVTQDAIRKNRPERPYVAENRAYFREKWQLTRGRRLIERWRRKLREFAWQKCERMFHGHTLKEKWLGGRLRYYLEHHHHHH” as the sequence, how does the “soluble on expression in E. coli” value read?
Answer: not soluble

Question: Which “soluble on expression in E. coli” value does the source give for “MSLGTRAPSFTPERSVEISGGEDGYFQARGTISGPLGETLAGRLSAYRTRDDGYVKNLHDGNTLNGGARQGFRGQLLFKPNDDFSLRWIGDYNEEDSDNGVLTLFSSGPTVNGVNRYEQRAAAAGATLVDGHRRKVNFDSDQQVTVFQGGTSVEANWKLANDFTLTSISAYRWWDFTPRNDDGLDVPAAYNAGVSVRDKQWSQEIRLASPSGGFFDYVLGAYYFGQDLDNKSFTDYGPRADIWNGTPAGALSDVSTRGRGHIDTDSYALFAQGTWHLTERLDLTAGVRGTYEEKSAWVEREGHHHHHH” here?
Answer: soluble

Question: Which “soluble on expression in E. coli” value does the source give for “MAHHHHHHMTIRVAINGYGRIGRNTLRAFYENGKKHDLEIVAINDLGDAKTNAHLTQYDTAHGKFPGEVSVDGDYLVVNGDRIRVLANRNPAELPWGELGVDVVMECTGFFTSKEKASAHLKGGAKKVIISAPGGKDVDATIVYGVNHDVLKAEHTVISNASCTTNCLAPLVKPLNDKIGLETGLMTTIHAYTNDQVLTDVYHEDLRRARSATHSQIPTKTGAAAAVGLVLPELNGKLDGYAIRVPTINVSIVDLSFIAKRDTTAAEVNAIMKEASEGALKGILGYNEAPLVSIDFNHNPASSTFDATLTKVSGRLVKVSSWYDNEWGFSNRMLDTAIALANAK” here?
Answer: soluble

Question: For “MSTDLRALLEQARQQGDYTALLEQIPYAKLIGIECTQLGDELLFRLPANKDNIGNPLLPALHGGVIAGFMELAAALHLLILTGSPGVPKIIDFSLDYLRAGQFRDTFARCQVCRQGRRVANVAITAWQSTAEESIATARAHFKIEESTGPLEHHHHHH”, which “soluble on expression in E. coli” value is on record?
Answer: soluble

Question: For “MLPSTMFLVHLPLSTNRLHCLRNTSLESCLCSFVHLNHPLHISDPVILISLHEAVRFSFAFSFPRGTLSIAYCLMSSVSTSSEAIMSTELLANYCHSSLHVCICISSFPNETGNHDSFPGAVVSISDQPTDQCKLAAKELPLRNLLECRFFDCMGEEDLINLGVIGTER”, which “soluble on expression in E. coli” value is on record?
Answer: soluble

Question: For “MGHHHHHHSHMVCSPVTVRIAPPDRRFSRSAIPEQIISSTLSSPSSNAPDPCAKETVLSALKEKKKKRTVEEEDQIFLDGQENKRSCLVDGLTDASSAFKVPRPGPDTLQFTVDVFHFANDSRNMIYITCHLKVTLAEQDPDELNKACSFSKPSNSWFPVEGPADICQCCNKGDCGTPSHSRRQPRVVSQWSTSASRNRRHVTEEADVTVGATDLPGQEW”, which “soluble on expression in E. coli” value is on record?
Answer: not soluble

Question: For “MSLNLSFAAIDFETATGYMESACAVGIVTVTDGEITDEYYSLIQPPENEYWRANMLVHGITPGMTESLPGFHAIYPEVKKRLQGNVVVAHNEQFDRNVLKNTMRMYGLDYDELSLPERWECTCRIYRSLGYKPVNLSACCEREGIELKHHEALSDARGCAKLYLNFLEKYRPLSTEGHHHHHH”, which “soluble on expression in E. coli” value is on record?
Answer: soluble

Question: Which “soluble on expression in E. coli” value does the source give for “MNRSRLLLLGAEAVAQGAIDAGLSGVYAYPGTPSTEITEYIQRSAPARQSGIRSAWSANEKTAYEAALGMSYAGKRSLVCMKHVGLNVAADAFMNSAITGVNGGLVLAVADDPSMHSSQNEQDSRVYGRFAMVPVLEPASQQELYDAMFHAFELSEAVRLPVIMRMTTRLSHSRAGVELKASLEQNPLSAE” here?
Answer: not soluble

Question: Which “soluble on expression in E. coli” value does the source give for “MAHHHHHHASVGRFVQTADPAVTALESPPLPTETRLWRQSPDCQSESDSNRVSGSVLDSVKSNGGPKHASTARLHASQDLPTSVTRFLCLSSSSNSAAAKDLRRQLLVVRDCCVALGNKVKGSELLLLGGSQLSRKVEAMADFNSCLGVIFAASLTFTGETEGVAKDTLCSVVEMLKSAQESGDEKVFRAAVVKIVNRILLCTPLRPPARNAAKETARKSAGKQEQHAEQEPKLEDECLDFLTVEDGVPVLLECVWKRWLRYFEDGYVRYVKKLMAEERQALEAAAAAAAADDYNGEEAQYVDGVSATTTQTISTVPLFTTCQDYWKSPASAYAQFCYILLAIFFVRTKDFSLNYLARVTKLVQYFTYQLEFEDGEPIAVRTDTDAEEDSAQSEDEDDDRTPPQQEGPRKEKQVHSLPMPEYDKAVTQRRFRMSRRSSSQGLVPTVVSFKKAEKPRRHCHKCFFTDALPGDLRPSVEAVRQEEAEAAARDSEEHSHLPVVRRSANLDLSEHSISPQREREQLDACDASMESVQGV” here?
Answer: soluble

Question: For “MSLNMLVINGTPRKHGRTRIAASYIAALYHTDLIDLSEFVLPVFNGEAEQSELLKVQELKQRVTKADAIVLLSPEYHSGMSGALKNALDFLSSEQFKYKPVALLAVAGGGKGGINALNNMRTVMRGVYANVIPKQLVLDPVHIDVENATVAENIKESIKELVEELSMFAKAGNPGVEGGSHHHHHH”, which “soluble on expression in E. coli” value is on record?
Answer: soluble

Question: For “MRLVDLRSDTLTRPTPAMRKAMAEAEVGDDAYGEDPTVNRLEALAAERLGFERALFLPSGTMANQVALLLHLPKELEAEARRYRKLLGGGWRQAGVLAAAGILALEEGPKHLRRDHEMARALAEGLFRLGLAVDLGAVETNMVYLEVEDPEGFLQGLRARGVLAGRVGGRVRFVTHRDLMDEDIPLALERVQDLLHSRPR”, which “soluble on expression in E. coli” value is on record?
Answer: soluble

Question: Which “soluble on expression in E. coli” value does the source give for “MSEKPIDKVFNRILVGVDDSADAQLAFRYAVRRAVKDNATLIITSILENDEMNVYQALTKDYVHGERYELVEHLKKYRDIAAKAGVKDIKEIVDEGNAGETIVKNVIPAVKADLLIIGSLSKKGISKYFGSQAAYMAKYAPISVLIIR” here?
Answer: not soluble

Question: With “MGSDKIHHHHHHMMAMITDPDDFFTKGCGRCARFDTPDCSTRPWIDGLNALRRICFSMGLEETAKWAHPCYMHAGRNIALLGAFRSDFLISFLNAGLLVDKAGVLKTPGPNSQTPSVIRFTTVAEVEALEPTIRAYLRQLMDHAVAGTQPPKMAREIDLPDELVDALDADPVLAEAYHALTPGRQRSYLFALSQAKQSATRVARIEKFRDKIIAGKGALER” as the sequence, how does the “soluble on expression in E. coli” value read?
Answer: not soluble
